Measurements reported in paper PMC13233901.

B1: wild type (WT) estrogen receptor [human (endogenous in and MCF7)] / progesterone receptor [human (endogenous in and MCF7)] (parent)
chain 1: MTMTLHTKASGMALLHQIQGNELEPLNRPQLKIPLERPLGEVYLDSSKPAVYNYPEGAAYEFNAAAAANAQVYGQTGLPYGPGSEAAAFGSNGLGGFPPLNSVSPSPLMLLHPPPQLSPFLQPHGQQVPYYLENEPSGYTVREAGPPAFYRPNSDNRRQGGRERLASTNDKGSMAMESAKETRYCAVCNDYASGYHYGVWSCEGCKAFFKRSIQGHNDYMCPATNQCTIDKNRRKSCQACRLRKCYEVGMMKGGIRKDRRGGRMLKHKRQRDDGEGRGEVGSAGDMRAANLWPSPLMIKRSKKNSLALSLTADQMVSALLDAEPPILYSEYDPTRPFSEASMMGLLTNLADRELVHMINWAKRVPGFVDLTLHDQVHLLECAWLEILMIGLVWRSMEHPGKLLFAPNLLLDRNQGKCVEGMVEIFDMLLATSSRFRMMNLQGEEFVCLKSIILLNSGVYTFLSSTLKSLEEKDHIHRVLDKITDTLIHLMAKAGLTLQQQHQRLAQLLLILSHIRHMSNKGMEHLYSMKCKNVVPLYDLLLEMLDAHRLHAPTSRGGASVEETDQSHLATAGSTSSHSLQKYYITGEAEGFPATV
chain 2: MTELKAKGPRAPHVAGGPPSPEVGSPLLCRPAAGPFPGSQTSDTLPEVSAIPISLDGLLFPRPCQGQDPSDEKTQDQQSLSDVEGAYSRAEATRGAGGSSSSPPEKDSGLLDSVLDTLLAPSGPGQSQPSPPACEVTSSWCLFGPELPEDPPAAPATQRVLSPLMSRSGCKVGDSSGTAAAHKVLPRGLSPARQLLLPASESPHWSGAPVKPSPQAAAVEVEEEDGSESEESAGPLLKGKPRALGGAAAGGGAAAVPPGAAAGGVALVPKEDSRFSAPRVALVEQDAPMAPGRSPLATTVMDFIHVPILPLNHALLAARTRQLLEDESYDGGAGAASAFAPPRSSPCASSTPVAVGDFPDCAYPPDAEPKDDAYPLYSDFQPPALKIKEEEEGAEASARSPRSYLVAGANPAAFPDFPLGPPPPLPPRATPSRPGEAAVTAAPASASVSSASSSGSTLECILYKAEGAPPQQGPFAPPPCKAPGASGCLLPRDGLPSTSASAAAAGAAPALYPALGLNGLPQLGYQAAVLKEGLPQVYPPYLNYLRPDSEASQSPQYSFESLPQKICLICGDEASGCHYGVLTCGSCKVFFKRAMEGQHNYLCAGRNDCIVDKIRRKNCPACRLRKCCQAGMVLGGRKFKKFNKVRVVRALDAVALPQPVGVPNESQALSQRFTFSPGQDIQLIPPLINLLMSIEPDVIYAGHDNTKPDTSSSLLTSLNQLGERQLLSVVKWSKSLPGFRNLHIDDQITLIQYSWMSLMVFGLGWRSYKHVSGQMLYFAPDLILNEQRMKESSFYSLCLTMWQIPQEFVKLQVSQEEFLCMKVLLLLNTIPLEGLRSQTQFEEMRSSYIRELIKAIGLRQKGVVSSSQRFYQLTKLLDNLHDLVKQLHLYCLNTFIQSRALSVEFPEMMSEVIAAQLPKILAGMVKPLLFHKK

Variants of: B1
Test: proximity ligation assay (PLA)
Conditions: with progesterone receptor [human (endogenous in T47D and MCF7)], read off a plot
[1] = MCF7 cells, basal (no added hormone), parent: 1.2
[2] = T47D cells, basal (no added hormone), parent: 6.4

Row | response [1] [Dots/Cell] | response (T47D cells, R5020 (10 nM) for 30 min, parent: 11) [Dots/Cell] | response [2] [Dots/Cell] | Variant
1 | 0.68 | 13 | 1.6 | chain 1 MTMTLHTKASGMALLHQIQGNELEPLNRPQLKIPLERPLGEVYLDSSKPAVYNYPEGAAYEFNAAAAANAQVYGQTGLPYGPGSEAAAFGSNGLGGFPPLNSVSPSPLMLLHPPPQLSPFLQPHGQQVPYYLENEPSGYTVREAGPPAFYRPNSDNRRQGGRERLASTNDKGSMAMESAKETRYCAVCNDYASGYHYGVWSCEGCKAFFKRSIQGHNDYMCPATNQCTIDKNRRKSCQACRLRKCYEVGMMKGGIRKDRRGGRMLKHKRQRDDGEGRGEVGSAGDMRAANLWPSPLMIKRSKKNSLALSLTADQMVSALLDAEPPILYSEYDPTRPFSEASMMGLLTNLADRELVHMINWAKRVPGFVDLTLHDQVHLLECAWLEILMIGLVWRSMEHPGKLLFAPNLLLDRNQGKCVEGMVEIFDMLLATSSRFRMMNLQGEEFVCLKSIILLNSGVYTFLSSTLKSLEEKDHIHRVLDKITDTLIHLMAKAGLTLQQQHQRLAQLLLILSHIRHMSNKGMEHLYSMKCKNVVPLSDLLLEMLDAHRLHAPTSRGGASVEETDQSHLATAGSTSSHSLQKYYITGEAEGFPATV [chain 1 Y537S]
2 | 0.58 | – | 1 | chain 1 MTMTLHTKASGMALLHQIQGNELEPLNRPQLKIPLERPLGEVYLDSSKPAVYNYPEGAAYEFNAAAAANAQVYGQTGLPYGPGSEAAAFGSNGLGGFPPLNSVSPSPLMLLHPPPQLSPFLQPHGQQVPYYLENEPSGYTVREAGPPAFYRPNSDNRRQGGRERLASTNDKGSMAMESAKETRYCAVCNDYASGYHYGVWSCEGCKAFFKRSIQGHNDYMCPATNQCTIDKNRRKSCQACRLRKCYEVGMMKGGIRKDRRGGRMLKHKRQRDDGEGRGEVGSAGDMRAANLWPSPLMIKRSKKNSLALSLTADQMVSALLDAEPPILYSEYDPTRPFSEASMMGLLTNLADRELVHMINWAKRVPGFVDLTLHDQVHLLECAWLEILMIGLVWRSMEHPGKLLFAPNLLLDRNQGKCVEGMVEIFDMLLATSSRFRMMNLQGEEFVCLKSIILLNSGVYTFLSSTLKSLEEKDHIHRVLDKITDTLIHLMAKAGLTLQQQHQRLAQLLLILSHIRHMSNKGMEHLYSMKCKNVVPLYGLLLEMLDAHRLHAPTSRGGASVEETDQSHLATAGSTSSHSLQKYYITGEAEGFPATV [chain 1 D538G]
